Test results: article PMC11315935, “Multi-layered heterochromatin interaction as a switch for DIM2-mediated DNA methylation” (Nature Communications, 2024)
Substitutions are numbered along the chain they refer to. Numbers in names are those of the source.

B1: HP1W98A: HP1 with H3K9me3-cage mutation W98A (protein)
chain: MPYDPSALSDEEAASSVELDTRSATSSSKKQSRDKKSVKYTIPEPEDFEDEEQNGDGADEGGEDDEEGDEEEEDVYVVEKILDHMLNDDNEPLFLVKAEGYEKKSDQTWEPEDTLIEGASERLKEYFTKIGGREKIFEASAAAQKIKKRGRPSSNSGTPQASSNKRSRKNGDHPLNSEEPQTAKNAAWKPPAGSWEEHIAQLDACEDEDTHKLMVYLTWKNGHKTQHTTDVIYKRCPQKMLQFYERHVRIIKRDPDSEDREGSVSQ
modifications: left off: His6, N-terminal, cleaved | MBP, N-terminal, cleaved
notes: HP1 with H3K9me3-cage mutation W98A
B2: DIM2L134A/L139A: DIM2 L134A/L139A double mutation (protein)
chain: MDSPDRSHGGMFIDVPAETMGFQEDYLDMFASVLSQGLAKEGDYAHHQPLPAGKEECLEPIAVATTITPSPDDPQLQLQLELEQQFQTESGLNGVDPAPAPESEDEADLPDGFSDESPDDDFVVQRSKHITVDAPVSTAINPRSTFQRIDENDNLVPPPQSTPERVAVEDLLKAAKAAGKNKEDYIEFELHDFNFYVNYAYHPQEMRPIQLVATKVLHDKYYFDGVLKYGNTKHYVTGMQVLELPVGNYGASLHSVKGQIWVRSKHNAKKEIYYLLKKPAFEYQRYYQPFLWIADLGKHVVDYCTRMVERKREVTLGCFKSDFIQWASKAHGKSKAFQNWRAQHPSDDFRTSVAANIGYIWKEINGVAGAKRAAGDQLFRELMIVKPGQYFRQEVPPGPVVTEGDRTVAATIVTPYIKECFGHMILGKVLRLAGEDAEKEKEVKLAKRLKIENKNATKADTKDDMKNDTATESLPTPLRSLPVQVLEATPIESDIVSIVSSDLPPSENNPPPLTNGSVKPKAKANPKPKPSTQPLHAAHVKYLSQELVNKIKVGDVISTPRDDSSNTDTKWKPTDTDDHRWFGLVQRVHTAKTKSSGRGLNSKSFDVIWFYRPEDTPCCAMKYKWRNELFLSNHCTCQEGHHARVKGNEVLAVHPVDWFGTPESNKGEFFVRQLYESEQRRWITLQKDHLTCYHNQPPKPPTAPYKPGDTVLATLSPSDKFSDPYEVVEYFTQGEKETAFVRLRKLLRRRKVDRQDAPANELVYTEDLVDVRAERIVGKCIMRCFRPDERVPSPYDRGGTGNMFFITHRQDHGRCVPLDTLPPTLRQGFNPLGNLGKPKLRGMDLYCGGGNFGRGLEEGGVVEMRWANDIWDKAIHTYMANTPDPNKTNPFLGSVDDLLRLALEGKFSDNVPRPGEVDFIAAGSPCPGFSLLTQDKKVLNQVKNQSLVASFASFVDFYRPKYGVLENVSGIVQTFVNRKQDVLSQLFCALVGMGYQAQLILGDAWAHGAPQSRERVFLYFAAPGLPLPDPPLPSHSHYRVKNRNIGFLCNGESYVQRSFIPTAFKFVSAGEGTADLPKIGDGKPDACVRFPDHRLASGITPYIRAQYACIPTHPYGMNFIKAWNNGNGVMSKSDRDLFPSEGKTRTSDASVGWKRLNPKTLFPTVTTTSNPSDARMGPGLHWDEDRPYTVQEMRRAQGYLDEEVLVGRTTDQWKLVGNSVSRHMALAIGLKFREAWLGTLYD
modifications: left off: His6, N-terminal, cleaved | MBP, N-terminal, cleaved
notes: DIM2 L134A/L139A double mutation
B3: DIM2N1050A: DIM2 with mutation in the bridging loop (N1050A) (protein)
chain: B2 chain with A134L, A139L, N1050A
modifications: left off: His6, N-terminal, cleaved | MBP, N-terminal, cleaved
B4: DIM2LLR: DIM2 L134A/L139A/R1104A triple mutation (protein)
chain: B2 chain with R1104A
modifications: left off: His6, N-terminal, cleaved | MBP, N-terminal, cleaved
notes: DIM2 L134A/L139A/R1104A triple mutation

What was measured:
DIM2 = assay: In vitro DNA methylation assay: effect of HP1 and H3 peptides on DIM2 activity; format: biochemical, Neurospora Crassa; design: DNA methylation activity of DIM2 in presence of HP1, WT or W98A: unit not given beside the values; conditions: for DNA methylation activity of DIM2 in presence of HP1, WT or W98A: Sup Fig. 1e, (CTA)12/(TAG)12 DNA duplex, 1.0 µM DIM2, 2 µM HP1, 30 °C, 30 min, pH 8.0
Procedure: In vitro DNA methylation assay was performed in a 20-µL reaction mixture. For the substrate specificity assay, the following DNA duplexes were used as substrates: CG DNA (Upper strand: 5’-[…]-3’), hemimethylated CG DNA (Upper strand: 5’-TAAATTTXGATTAATAAT-3’, X = 5-methylcytosine; Lower strand: 5’-[…] -3’), CHG DNA (Upper strand: 5’-[…]-3’), and CHH DNA (Upper strand: 5’-[…]-3’). The reaction mixture contains 0.25 µM DIM2, 1.0 µM DNA duplex, 1.0 µM synthesized H3K9me3 peptide (residues 1-24 of H3 plus a C-terminal tryptophan), 0.5 µM HP1, and 0.56 µM S-adenosyl-L-[methyl-^3H] methionine with a specific activity of 18 Ci/mmol (PerkinElmer) in buffer containing 50 mM Tris-HCl (pH 8.0), 100 mM NaCl, 0.05% β-mercaptoethanol, 5% glycerol, and 200 µg/mL BSA. For the rest of the DNA methylation assay, each reaction mixture contains 1.0 µM DIM2, […] methionine with a specific activity of 18 Ci/mmol (PerkinElmer) in buffer containing 50 mM Tris-HCl (pH 8.0), 100 mM NaCl, 0.05% β-mercaptoethanol, 5% glycerol, and 200 µg/mL BSA. In addition, 1.0 µM synthesized H3K9me3 or H3K9me0 peptide (residues 1-24 of H3 plus a C-terminal tryptophan) and/or 2 µM HP1 protein was included to evaluate the effect of H3 and HP1 regulation. The reaction mixture was incubated at 30 °C for 30 min, unless indicated otherwise, before being quenched by the addition of 5 µL of 10 mM cold SAM. After the reaction, 8 μL of the mixtures was loaded onto Hybond N nylon membrane (GE Healthcare), which was left to dry out at room temperature. The membrane was subsequently washed with 0.2 M ammonium bicarbonate (pH 8.2) two times (20 min per time), deionized water (20 min) once, and 95% ethanol (5 min) once. After air dried, the membrane carrying each sample was transferred into a vial containing 3 mL scintillation buffer (Fisher). The tritium scintillation was measured and recorded by a Beckman LS6500 counter. Each the reaction was repeated three times.

[1] = system: (CTA)12/(TAG)12 36-mer DNA duplex; assay: In vitro DNA methylation assay of DIM2 (WT or mutant); format: biochemical; design: DNA methylation activity: unit not given here; conditions: 30 min, pH 8.0
HP1 = assay: Size-exclusion chromatography of DIM2-HP1 complex; format: binding, Neurospora Crassa; conditions: 1.0 µM DIM2 and/or 2.5 µM HP1, Superdex 200 increase 10/300 GL, pH 7.5
Procedure: For size-exclusion chromatography analysis, 400 µL of the sample mixture containing 1.0 µM DIM2 and/or 2.5 µM HP1 was loaded onto Superdex 200 increase 10/300 GL column (GE Healthcare) and eluted at a flow rate of 0.5 mL/min, in the buffer containing 20 mM Tris-HCl (pH 7.5), 100 mM NaCl, 5% glycerol, and 5 mM DTT. The proteins in each fraction were then visualized by SDS-PAGE.

[2] = Fig. 2g, in the presence of HP1 (2 µM) and H3_1-24K9me3 peptide (1.0 µM), 1.0 µM DIM2, 30 °C, replicate 1
[3] = Fig. 2g, in the presence of HP1 (2 µM) and H3_1-24K9me3 peptide (1.0 µM), 1.0 µM DIM2, 30 °C, replicate 2
[4] = Fig. 2g, in the presence of HP1 (2 µM) and H3_1-24K9me3 peptide (1.0 µM), 1.0 µM DIM2, 30 °C, replicate 3

Row | Molecule | DNA methylation activity of DIM2 in presence of HP1, WT or W98A (DIM2; replicate 1) | DNA methylation activity of DIM2 in presence of HP1, WT or W98A (DIM2; replicate 2) | DNA methylation activity of DIM2 in presence of HP1, WT or W98A (DIM2; replicate 3) | increase of activity-stimulation effect of HP1 on DIM2 (DIM2; W98A vs WT HP1) | DNA methylation activity [1, 2] | DNA methylation activity [1, 3] | DNA methylation activity [1, 4] | DIM2-HP1 complex formation (in words) (HP1) | DNA methylation activity of DIM2 (in words) ([1]; 1.0 µM DIM2, 30 °C) | DNA methylation activity ([1]; Fig. 6d, H3_1-24K9me3 binding-associated mutants, 1.0 µM DIM2, 1.0 µM DNA duplex, 30 °C, replicate 1) | DNA methylation activity ([1]; Fig. 6d, H3_1-24K9me3 binding-associated mutants, 1.0 µM DIM2, 1.0 µM DNA duplex, 30 °C, replicate 2) | DNA methylation activity ([1]; Fig. 6d, H3_1-24K9me3 binding-associated mutants, 1.0 µM DIM2, 1.0 µM DNA duplex, 30 °C, replicate 3)
1 | B1 | 45.423 | 47.119 | 45.142 | ~ 2 fold |  |  |  |  |  |  |  | 
2 | B2 |  |  |  |  | 1.016 | 1.136 | 1.188 | partial disruption of the DIM2-HP1 complex |  |  |  | 
3 | B3 |  |  |  |  |  |  |  |  | marked decrease of the DNA methylation activity | 5.118 | 5.385 | 5.072
4 | B4 |  |  |  |  | 0.066 | 0.154 | 0.275 | complete disruption of the DIM2-HP1 complex | completely abolished the DNA methylation activity |  |  | 
